Key:
[1] = target: T1, monkey LAG-3 (full length, on the cell surface) (monkey, UniProt P18627 24-525 (human entry)); assay: FACS, HEK293-cLAG-3; 0.064 nM
T1 construct: also called HEK293-cLAG-3; monkey LAG-3 protein on the cell surface
T1 chain: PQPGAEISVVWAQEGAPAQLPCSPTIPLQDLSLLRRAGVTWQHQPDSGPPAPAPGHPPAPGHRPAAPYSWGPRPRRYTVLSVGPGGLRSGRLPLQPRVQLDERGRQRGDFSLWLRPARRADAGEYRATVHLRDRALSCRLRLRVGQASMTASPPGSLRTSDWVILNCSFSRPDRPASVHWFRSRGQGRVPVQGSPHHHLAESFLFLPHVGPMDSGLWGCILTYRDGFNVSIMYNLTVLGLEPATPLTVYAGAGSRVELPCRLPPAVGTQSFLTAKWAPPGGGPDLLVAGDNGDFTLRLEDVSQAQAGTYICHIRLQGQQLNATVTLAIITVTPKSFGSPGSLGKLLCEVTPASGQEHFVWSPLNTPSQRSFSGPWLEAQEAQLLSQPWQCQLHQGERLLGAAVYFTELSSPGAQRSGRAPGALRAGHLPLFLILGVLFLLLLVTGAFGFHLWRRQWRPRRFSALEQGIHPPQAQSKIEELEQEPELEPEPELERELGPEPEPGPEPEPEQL
Text: (§1) The pIRES plasmid with the monkey-derived full-length gene was transfected into the HEK293 cell line to construct a HEK293 stable cell line containing monkey LAG-3 (herein referred to as HEK293-cLAG-3 stable cell line). The HEK293-hLAG-3 stable cell line and HEK293-cLAG-3 stable cell line were expanded in a T-75 cell culture flask to a 90% confluence. The medium was aspirated, and the cells were washed with HBSS (Hanks' Balanced Salt Solution) 1-2 times, then treated with a enzyme-free cell dissociation fluid (Versene solution: Life technology) and the cells were collected. The cells were washed with HBSS buffer for 1-2 times. After counted, the cells were diluted with HBSS to 1-2×10⁶ cells per ml, added with 1% goat serum blocking solution, incubated on ice for 20-30 minutes, and then washed with HBSS for 2 times by centrifugation. The collected cells were suspended in the FACS buffer (HBSS+1% BSA) to 2×10⁶ cells/ml, added as 100 microliters per well to a 96-well FACS reaction plate, added with 100 microliters per well of the antibody sample to be tested, incubated on ice for 1-2 hours. The plate was washed twice with the FACS buffer by centrifugation, added with 100 microliters of fluorescent (Alexa 488)-labeled secondary antibodies per well, and incubated on ice for 0.5-1.0 hours. The plate was washed 2-3 times with FACS buffer by centrifugation, added with 100 μl fixative solution (4% Paraformaldehyde) per well to suspend the cells. 5-10 minutes later, it was washed 1-2 times with FACS buffer by centrifugation. The cells were suspended with 100 microliters of FACS buffer, FACS (FACSCalibur, BD) was used for detection and the results were analyzed.

[2] = target: T1, monkey LAG-3 (full length, on the cell …); assay: FACS, HEK293-cLAG-3; 200.000 nM
Text: as §1

[3] = target: T2, human LAG-3 protein with hFc tag (hLAG-3-hFc protein) (human, UniProt P18627 23-450); assay: FACS, blocks LAG-3-hFc binding to MHC II on Raji; 0.000 nM
T2 construct: also called immunogen 1; LAG-3 extracellular domain protein; not shown: human IgG Fc fragment (hFc) of the pCpC vector
T2 sequence: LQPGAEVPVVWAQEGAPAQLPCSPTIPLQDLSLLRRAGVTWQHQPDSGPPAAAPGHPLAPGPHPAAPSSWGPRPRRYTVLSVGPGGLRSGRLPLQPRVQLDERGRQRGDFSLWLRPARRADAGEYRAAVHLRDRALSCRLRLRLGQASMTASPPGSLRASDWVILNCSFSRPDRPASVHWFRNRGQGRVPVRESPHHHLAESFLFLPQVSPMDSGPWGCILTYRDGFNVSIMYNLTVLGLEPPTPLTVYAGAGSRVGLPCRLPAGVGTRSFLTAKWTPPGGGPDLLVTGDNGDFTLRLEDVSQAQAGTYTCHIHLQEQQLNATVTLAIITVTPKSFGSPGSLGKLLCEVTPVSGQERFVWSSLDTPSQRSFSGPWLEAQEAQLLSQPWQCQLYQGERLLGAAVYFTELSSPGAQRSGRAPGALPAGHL
Procedure: The FACS reaction plate incubating the Raji cells was centrifuged to discard the supernatant. The above mixture was added as 100 μl per well to Raji cells and incubated on ice for 1-2 hours. The plate was washed twice with blocking solution (PBS, 2% fetal bovine serum) by centrifugation, added with 100 microliters of fluorescent (Alexa 488)-labeled secondary antibodies per well, and incubated on ice for 1.0 hours. The plate was washed 2-3 times by centrifugation with blocking solution (PBS, 2% fetal bovine serum), added with 100 microliters of PBS per well to suspend cells, and detected using FACS (FACS Calibur, BD) and the results were analyzed. Wherein, the IgG control was murine IgG, and the data in the table is the inhibition rate (%).

[4] = target: T3, human LAG-3 on cells (HEK293-hLAG-3 stable cell line) (human, UniProt P18627 23-525); assay: cell-based or functional assay
T3 sequence: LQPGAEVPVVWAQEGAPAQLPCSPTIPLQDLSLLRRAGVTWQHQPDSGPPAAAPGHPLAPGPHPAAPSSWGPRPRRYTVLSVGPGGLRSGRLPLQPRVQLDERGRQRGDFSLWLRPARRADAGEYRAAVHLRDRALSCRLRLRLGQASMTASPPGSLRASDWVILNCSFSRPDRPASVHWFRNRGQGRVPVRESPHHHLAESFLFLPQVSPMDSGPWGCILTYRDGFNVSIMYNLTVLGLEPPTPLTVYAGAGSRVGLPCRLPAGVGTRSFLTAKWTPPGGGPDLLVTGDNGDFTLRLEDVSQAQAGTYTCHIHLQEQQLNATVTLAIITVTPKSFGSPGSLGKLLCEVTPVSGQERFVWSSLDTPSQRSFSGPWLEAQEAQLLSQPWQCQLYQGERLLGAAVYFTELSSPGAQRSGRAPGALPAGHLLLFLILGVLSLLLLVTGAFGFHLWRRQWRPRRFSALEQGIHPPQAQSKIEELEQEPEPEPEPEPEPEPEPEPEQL

[5] = target: T3, human LAG-3 on cells (HEK293-hLAG-3 …); assay: FACS, HEK293-hLAG-3, antibody 0.000 nM
Text: as §1

B1: 405B8H3 (mouse antibody purified from hybridoma) (antibody, V domains shown)
VH: QVQLQQSGAELVRPGASVTLSCKASGYTFTDYEMHWVKQTPVHGLEWIGATDPETGNSAYNQKFKGKAIMTADKSSSTAYMELRSLTSEDSAVYYCISTGWNDWGQGTSLTVSS
VL: DIKMTQSPSSMYASLGERVTITCKASQDINSYLSWFQQKPGKSPKTLIYRADRLLDGVPSRFSGSGSGQDYSLTISSLEYGDMGIYYCLQYDEFPYTFGGGTKLEIK
notes: also called mAb103-405B8H3; 405B81-13
Mean fluorescence intensity [1]: 4.9 MFI | Mean fluorescence intensity [2]: 139 MFI | Inhibition rate (%) [3]: 0.3%

B2: 105F1E10 mouse-human chimeric antibody (antibody, V domains shown)
VH: EVQLQQSGPELVKPGASVKMSCRASGYTFTDFKMHWMKQSHGKSLEWIGYIAPNNGGTAYNQKFRGKATLTVNESSNTAYMELRSLTSEDSAVYYCVDWDDVDYWGQGTTLTVSS
VL: DIKMTQSPSSMYASLGERVTITCKASQDINSYLSWFQQKSGKSPKTLIYRANRLVDGVPSRFSGSGSGQDYSLTISSLEYEDMGIYYCLQYVEFPLTFGAGTKLELK
notes: also called mAb009-105F1E10
IL-2 production, SEB-dependent PBMC stimulation test, 0.0032 ug/ml, N = 1 [4]: 2340 pg/mL | IL-2 production, SEB-dependent PBMC stimulation test, 0.0032 ug/ml, N = 2 [4]: 1840 pg/mL | IL-2 production, SEB-dependent PBMC stimulation test, 0.016 ug/ml, N = 1 [4]: 1720 pg/mL | IL-2 production, SEB-dependent PBMC stimulation test, 0.016 ug/ml, N = 2 [4]: 1520 pg/mL | IL-2 production, SEB-dependent PBMC stimulation test, 0.08 ug/ml, N = 1 [4]: 2130 pg/mL | IL-2 production, SEB-dependent PBMC stimulation test, 0.08 ug/ml, N = 2 [4]: 1770 pg/mL | IL-2 production, SEB-dependent PBMC stimulation test, 0.4 ug/ml, N = 1 [4]: 2550 pg/mL | IL-2 production, SEB-dependent PBMC stimulation test, 0.4 ug/ml, N = 2 [4]: 2570 pg/mL | IL-2 production, SEB-dependent PBMC stimulation test, 2 ug/ml, N = 1 [4]: 3970 pg/mL | IL-2 production, SEB-dependent PBMC stimulation test, 2 ug/ml, N = 2 [4]: 3660 pg/mL | IL-2 production, SEB-dependent PBMC stimulation test, 10 ug/ml, N = 1 [4]: 3740 pg/mL | IL-2 production, SEB-dependent PBMC stimulation test, 10 ug/ml, N = 2 [4]: 3650 pg/mL | Mean fluorescence intensity [5]: 2.6

B3: 105F1E10 (mouse antibody purified from hybridoma) (antibody, V domains shown)
VH: EVQLQQSGPELVKPGASVKMSCRASGYTFTDFKMHWMKQSHGKSLEWIGYIAPNNGGTAYNQKFRGKATLTVNESSNTAYMELRSLTSEDSAVYYCVDWDDVDYWGQGTTLTVSS
VL: DIKMTQSPSSMYASLGERVTITCKASQDINSYLSWFQQKSGKSPKTLIYRANRLVDGVPSRFSGSGSGQDYSLTISSLEYEDMGIYYCLQYVEFPLTFGAGTKLELK
notes: also called mAb009-105F1E10
Mean fluorescence intensity [1]: 4.5 MFI | Mean fluorescence intensity [2]: 120 MFI | Inhibition rate (%) [3]: -14%

B4: 409D4E10 (mouse antibody purified from hybridoma) (antibody, V domains shown)
VH: QVQLQQSGAELVRPGASVTLSCKASGNTFTDYEMHWVKQTPVHGLEWIGATDPETDNTAYNQKFKGKAILTTDKSSSTAYMELRSLTSEDSAVYYCITSGWNDWGQGTSLTVSS
VL: DIKMTQSPSSMYASLGERVTITCKASQDINSYLSWFQQKPGKSPKTLIYRANRLLDGVPSRFSGSGSGQDYSLTISSLEYEDMGIYYCLQYNEFPYTFGGGTKLEIK
notes: also called mAb112-409D4E10
Mean fluorescence intensity [1]: 4.7 MFI | Mean fluorescence intensity [2]: 153 MFI | Inhibition rate (%) [3]: -21.4%

B5: 409B11E12 (mouse antibody purified from hybridoma) (antibody, V domains shown)
VH: QVQLQQSGAELVRPGASVTLSCKASGYTFTDYEMHWVKQTTVHGLEWIGATDPETSYSAYNQKFKGKAILTADKSSSTAYMELRSLTSEDSAVYYCIATGWNDWGQGTSLTVSS
VL: DLKMTQSPSSMYASLGERVTITCKASQDINSYLSWFQQKPGKSPKTLIYRANRLLDGVPSRFSGSGSGQDYSLTISSLEYEDMGIYYCLQYDEFPYTFGGGTKLEIK
notes: also called mAb104-409B11E12
Mean fluorescence intensity [1]: 4.2 MFI | Mean fluorescence intensity [2]: 134 MFI | Inhibition rate (%) [3]: -21.2%

B6: 556F6B8 mouse-human chimeric antibody (antibody, V domains shown)
VH: RVQLKQSGPGLVQPSQSLSITCTVSGFSLIKYGVHWVRQSPGEGLEWLGVIWRGGITDYNAAFMSRLSITKDNSKSQVFFKMNSLQADDTAIYYCAKWDGPLAMDYWGQGTSVTVSS
VL: DIVMTQSHKFLSTSVGDRVSITCKASQDVGTTVAWYQQKPGQSPKLLIYWASTRHTGVPDRFTGSGSGTDFTLTISNVQSEDLADYFCQQYSSYPYTFGGGTKLEIK
notes: also called mAb123-556F6B8; 556F8B8
IL-2 production, SEB-dependent PBMC stimulation test, 0.0032 ug/ml, N = 1 [4]: 1780 pg/mL | IL-2 production, SEB-dependent PBMC stimulation test, 0.0032 ug/ml, N = 2 [4]: 1910 pg/mL | IL-2 production, SEB-dependent PBMC stimulation test, 0.016 ug/ml, N = 1 [4]: 1430 pg/mL | IL-2 production, SEB-dependent PBMC stimulation test, 0.016 ug/ml, N = 2 [4]: 2010 pg/mL | IL-2 production, SEB-dependent PBMC stimulation test, 0.08 ug/ml, N = 1 [4]: 1780 pg/mL | IL-2 production, SEB-dependent PBMC stimulation test, 0.08 ug/ml, N = 2 [4]: 1980 pg/mL | IL-2 production, SEB-dependent PBMC stimulation test, 0.4 ug/ml, N = 1 [4]: 2570 pg/mL | IL-2 production, SEB-dependent PBMC stimulation test, 0.4 ug/ml, N = 2 [4]: 2810 pg/mL | IL-2 production, SEB-dependent PBMC stimulation test, 2 ug/ml, N = 1 [4]: 3800 pg/mL | IL-2 production, SEB-dependent PBMC stimulation test, 2 ug/ml, N = 2 [4]: 4010 pg/mL | IL-2 production, SEB-dependent PBMC stimulation test, 10 ug/ml, N = 1 [4]: 2610 pg/mL | IL-2 production, SEB-dependent PBMC stimulation test, 10 ug/ml, N = 2 [4]: 3260 pg/mL | Mean fluorescence intensity [5]: 3.3

B7: 556F6B8 (mouse antibody purified from hybridoma) (antibody, V domains shown)
VH: RVQLKQSGPGLVQPSQSLSITCTVSGFSLIKYGVHWVRQSPGEGLEWLGVIWRGGITDYNAAFMSRLSITKDNSKSQVFFKMNSLQADDTAIYYCAKWDGPLAMDYWGQGTSVTVSS
VL: DIVMTQSHKFLSTSVGDRVSITCKASQDVGTTVAWYQQKPGQSPKLLIYWASTRHTGVPDRFTGSGSGTDFTLTISNVQSEDLADYFCQQYSSYPYTFGGGTKLEIK
notes: also called mAb123-556F6B8
Mean fluorescence intensity [1]: 5.1 MFI | Mean fluorescence intensity [2]: 52.2 MFI | Inhibition rate (%) [3]: -10.7%
